Laboratory results taken from the nanobody polyreactivity screen of Harvey et al. (2022).

Assay: yeast display, Sf9 membrane polyspecificity reagent, FACS + sequencing; frameworks hold sequencing errors
In short: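 Nanobodies came from a synthetic yeast display library in Saccharomyces cerevisiae BJ5465, induced with galactose for 36–48 hours and stained for 1 hour at 4 °C with 10% biotinylated, detergent-solubilized Sf9 membrane reagent. Cells were enriched on streptavidin microbeads and then FACS-sorted, with low and high (top ~1%) gates set on anti-HA fluorescence for expression and streptavidin fluorescence for reagent binding. Each polyreactivity label reflects the gate a clone came from. Genes were amplified by colony PCR, sequenced by MiSeq 2 × 250 and filtered by CDR length.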

Which “polyreactivity (PSR sort gate)” value does the source give for “QVQLVESGGGLVQAGGSLRLSCAASGRNFYSYVMGWYRQAPGKERELVASIRVSGGSTYYADSVKGRFTISRDNAKNTVYLQMNSLKPEDTAVYYCAAGYRSGVSLWRFYAYYWGQGTQVTVSS” here?
Its value is “high polyreactivity”.

With “QVQLVESGGGLVQAGGSLRLSCAASGRNFYYYAMGWYRQAPGKERELVAAISASGGSTYYADSVKGRFTISRDNAKNTVYLQMNSLKPEDTAVYYCAARATTSQYNYYYWGQGTQVTVSS” as the sequence, how does the “polyreactivity (PSR sort gate)” value read?
The value was “high polyreactivity”.

With “QVQLVESGGGLVQAGGSLRLSCAASGRPFNRNAMGWYRTAPGKERELVASITSRGGSTYYADSVKGRFTISRDNAKNTVYLQMNSLKTEDTAVYYCAGYTRNGDYDYWGQGTQVTFSS” as the sequence, how does the “polyreactivity (PSR sort gate)” value read?
Its value is “high polyreactivity”.

For “QVQLVESGGGLVQAGGSLRLSCAASGRPSSLMNMGWYRQAPGKERELVAAISTSGGSTYYADSVKGRFTISRDNAKNTVYLQMNSLKPEDTAVYYCAATIGRRSYNQMYYWGQGTQVTVSS”, which “polyreactivity (PSR sort gate)” value is on record?
The value was “high polyreactivity”.

Which “polyreactivity (PSR sort gate)” value does the source give for “QVQLVESGGGLVQAGGSLRLSCAASGRSFESYAMGWYRQAPGKERELVAAITWSGGDTYYADSVKGRFTISRDNAKNTVYLQMNSLKPEDTAVYYCAKEQGLYSVSPYDYWGQGTQVTVSS” here?
Its value is “low polyreactivity”.

Which “polyreactivity (PSR sort gate)” value does the source give for “QVQLVESGGGLVQAGGSLRLSCAASGRSFIENVKGWYRQAPGKERELVAAIRSAGTTYNADSVKGRFTISRDNAKNTVYLQMNSLKPEDTAVDYCAATNRYYWSYFYQSKYGYWGQGTQVTVSS” here?
Its value is “low polyreactivity”.

With “QVQLVESGGGLVQAGGSLRLSCAASGRSFPAYAMGWYRQAPGKERELVAAISQSGGSTYYADSVKGRFTISRDNAKNTVYLQMNSLKPEDTAVYYCAAGWYVSYYWYDYWGQGTQVTVSS” as the sequence, how does the “polyreactivity (PSR sort gate)” value read?
Its value is “high polyreactivity”.

Which “polyreactivity (PSR sort gate)” value does the source give for “QVQLVESGGGLVQAGGSLRLSCAASGRSFPTYAMGWYRQAPGKERELVATISWSGGRTYYADSVKGRFTISRDNAKNTVYLLMNSLKPEDTAVYYCNAYISYRWYRWEYEYWGQGTQVTVSS” here?
Its value is “low polyreactivity”.

For “QVQLVESGGGLVQAGGSLRLSCAASGRSFPWYGMGWYRQAPGKERELVAAISRTGGNTYYADSVKGRFTISRDNAKNTVYLQMNSLKPEDTAVYYCIAGYYSNRSYFYDYGYWGQGTQVTVSS”, which “polyreactivity (PSR sort gate)” value is on record?
Its value is “high polyreactivity”.

Which “polyreactivity (PSR sort gate)” value does the source give for “QVQLVESGGGLVQAGGSLRLSCAASGRSFQGYAMGWYRKAPGKERELVAAISWSGGSTYYADSVKGRFTISRDNAKNTVYLQMNSLKPEDTAVYYCAASYDIYGNYRRYDYWGQGTQVTVSS” here?
The value was “high polyreactivity”.

With “QVQLVESGGGLVQAGGSLRLSCAASGRSFRRYAMGWYRQAPVKDRELVATNTSNGGSTYYADSVKGRFTISRDNAMHTVDFQLNSLKPEDTAVYYCARDLTYYRSRYDYWGQGTQVTVSS” as the sequence, how does the “polyreactivity (PSR sort gate)” value read?
The value was “high polyreactivity”.

Which “polyreactivity (PSR sort gate)” value does the source give for “QVQLVESGGGLVQAGGSLRLSCAASGRSFSKYAMGWYRQAPGKERDLVAGISRSGGSTYYADSVKGRFTISRDNAKNSVYLQMNSLKPEDTAVYYGAAVRRDYDDVYTEYWGQGTQVNVSS” here?
Its value is “high polyreactivity”.

Which “polyreactivity (PSR sort gate)” value does the source give for “QVQLVESGGGLVQAGGSLRLSCAASGRSFSLYAMGWYRQAPGKERELVASITGSSTYYADSVKGRFTISRDNAKNTVYLQMNSLKPEDTAVYYCNARTSAGAGVDYWGQGTQVTVSS” here?
The value was “low polyreactivity”.

With “QVQLVESGGGLVQAGGSLRLSCAASGRSFSYNAMGWYRQAPGKERELVASISGNGGRTYYADSVKGRFTISRDNAKNTVYLQMNSLKPEDTAVYYCAARYYSWGGVQYDYWGQGTQVTVSS” as the sequence, how does the “polyreactivity (PSR sort gate)” value read?
Its value is “high polyreactivity”.

For “QVQLVESGGGLVQAGGSLRLSCAASGRSFTYYAMGWYRQAPGKERELVATISGSGGSTYYADSVKGRFTISRDNAKNTVYLQMNSLKPEDTAVYYCAATGFIFRGRVRAIPRRYNYWGQGTQVTVSS”, which “polyreactivity (PSR sort gate)” value is on record?
The value was “high polyreactivity”.

For “QVQLVESGGGLVQAGGSLRLSCAASGRSFWAYAMGWYRQETGTERELVADITTSGGSTNYADSVKGRFTISRDNAKNTVYLQMNSLKPEDTAVYYCNADPTYHVVNCVGYWGHGTQVTVSS”, which “polyreactivity (PSR sort gate)” value is on record?
The value was “low polyreactivity”.

With “QVQLVESGGGLVQAGGSLRLSCAASGRSFYNYAMGWYRQAPGKERELVAAISGSGGSTYYADSVKGRFTISRDNAKNSVYLQMNSLKPEDTAVYYCSTSGPQYYSRNFDSWGQGTQVTVSS” as the sequence, how does the “polyreactivity (PSR sort gate)” value read?
The value was “low polyreactivity”.

For “QVQLVESGGGLVQAGGSLRLSCAASGRSILLNAMGWYRHAPGKERELVAAISRGGSTYYADSVKGRFTISRDNAKYSVYLQMNSLKPEDTAVYYCAARFWISHTHWDAGDYWGQGTQVTVSS”, which “polyreactivity (PSR sort gate)” value is on record?
The value was “low polyreactivity”.

For “QVQLVESGGGLVQAGGSLRLSCAASGRSLYNTMGWYRQAPGKERELVAGINWGGGRTYADSVKGRFTISRDNAKNTVYLQMNSMKPEDTAVYYCAADVNYQSRSHIVDYEYGYWGQGTQVTVSS”, which “polyreactivity (PSR sort gate)” value is on record?
Its value is “low polyreactivity”.

For “QVQLVESGGGLVQAGGSLRLSCAASGRTCDIYAMGWYRQAPGKERELVAAISSGGSTYYADSVKGRFTISRDNAKNTVYLQMNSLKPEDTAVYYCAVRWYDQVSRRGIGYYWGQGTLVTVSS”, which “polyreactivity (PSR sort gate)” value is on record?
Its value is “low polyreactivity”.

With “QVQLVESGGGLVQAGGSLRLSCAASGRTCGSYAMGWYRQAPGKERELVAAISLSAGSTYYADSVKGRFTISRDNAKNTVYLQMNSLKPEDTAVYYCAAGTQWYSQVYIYYYWGQGTQVTVSS” as the sequence, how does the “polyreactivity (PSR sort gate)” value read?
Its value is “low polyreactivity”.

For “QVQLVESGGGLVQAGGSLRLSCAASGRTCYSNAMGWYRQAPGKERELVAAITRGASTKYADSVKGRFTISRDNAKNTVYLQMNSLKPEDTAVYYCATARYPRYIYDYWGQGTQVTVSS”, which “polyreactivity (PSR sort gate)” value is on record?
The value was “low polyreactivity”.

Which “polyreactivity (PSR sort gate)” value does the source give for “QVQLVESGGGLVQAGGSLRLSCAASGRTFADYAMGWYRQAPGKERELVATIRKSTGTTYYADSVKGRFTISRDNAKNTVYLQMNSLKPEDTAVYYCAAARSRYSRWRVEYWGQGTQVTVSS” here?
Its value is “high polyreactivity”.

For “QVQLVESGGGLVQAGGSLRLSCAASGRTFAENAMGWYRQAPGKESELVAAISETGSRTYYADSVKGRFTISRDNAKNTVYLQMNSLKPEDTAVYYCAARSWHGVLWSYRHDYWGQGTQVTVSS”, which “polyreactivity (PSR sort gate)” value is on record?
The value was “low polyreactivity”.

Which “polyreactivity (PSR sort gate)” value does the source give for “QVQLVESGGGLVQAGGSLRLSCAASGRTFAFNAMGWYRQAPGKERELVATISWSGGSTYYADSVKGRFTISRDNAKNTVYLQMNSLKPEDTAVYYCGAEYVVYRYRLYGTVAYDYWGQGTQVTVSS” here?
The value was “high polyreactivity”.

For “QVQLVESGGGLVQAGGSLRLSCAASGRTFAFYAMGWYRPAPGKERELVASIRGGGGTNYADSVKGRFTISRDNAKNPVYLQMNSVKPEDTAVYYCAARGYGYRGYYYWGQGTQVTVSS”, which “polyreactivity (PSR sort gate)” value is on record?
The value was “high polyreactivity”.

With “QVQLVESGGGLVQAGGSLRLSCAASGRTFAFYTMGWYRQAPGKEREFVAAISWSGGSTHYADSVKGRFTISRDNAKNTVYLQMNSLKQEDSAVYYCAAGPFYRFTDGRYKTLDYWGQGTQVTVSS” as the sequence, how does the “polyreactivity (PSR sort gate)” value read?
The value was “high polyreactivity”.

For “QVQLVESGGGLVQAGGSLRLSCAASGRTFAGNAMGWYRQAPGKERELVAAIRRTGGRTYYADSVKGRFTISRDNAKNTVYLQMNSLKPEDTAVYYCNAVNKPYTREYGYDYWGQGTQVTVSS”, which “polyreactivity (PSR sort gate)” value is on record?
The value was “high polyreactivity”.

Which “polyreactivity (PSR sort gate)” value does the source give for “QVQLVESGGGLVQAGGSLRLSCAASGRTFAGNAMGWYRQAPGKERELVAAISWSGGRTYYADSVKGRFTISRDNAKNTVYLQMNSLKPEETAVYYCAAVRASSRFRYGYWGQGTQVTVSS” here?
The value was “high polyreactivity”.

Which “polyreactivity (PSR sort gate)” value does the source give for “QVQLVESGGGLVQAGGSLRLSCAASGRTFALNALGWSRQAPGKERELVAAISWSSGRTYYADSVKGRFTISRDNAKNTVYLQMNSLKPEDTAVYYCAALVAHKGDYWGQGTQVTVSS” here?
The value was “high polyreactivity”.

With “QVQLVESGGGLVQAGGSLRLSCAASGRTFALYAMGWYRQAPGKERELVAAITSGGSTNYADSVKGRFTISRDNAKNTVYVQMNSLKPEDTAVYYCNADDSSKDVIGLDYWGQGTQVTVSS” as the sequence, how does the “polyreactivity (PSR sort gate)” value read?
The value was “low polyreactivity”.
